Consider seven substances from article PMC5096715.

One assay has as its target C3d C3d (Homo sapiens) (UniProt P01024). The assay can be described thus: biolayer interferometry. Conditions: cited from earlier work.
Assay [1] has as its target complement component C3b, serum-derived (human) (UniProt P01024).
Assay [2] shares this target. The source holds these as a separate data set.

C3d C3d (Homo sapiens), sequence (P01024 1002-1303): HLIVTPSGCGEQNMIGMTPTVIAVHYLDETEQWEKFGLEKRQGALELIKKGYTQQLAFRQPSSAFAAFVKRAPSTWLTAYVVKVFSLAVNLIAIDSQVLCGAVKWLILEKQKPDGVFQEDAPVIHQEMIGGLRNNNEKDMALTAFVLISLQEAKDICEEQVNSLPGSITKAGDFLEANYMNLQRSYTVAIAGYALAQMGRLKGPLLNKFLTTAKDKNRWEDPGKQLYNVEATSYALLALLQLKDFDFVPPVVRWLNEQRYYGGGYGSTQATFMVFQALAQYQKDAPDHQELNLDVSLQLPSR
complement factor H (CFH), recombinant, sequence (P08603 19-1231): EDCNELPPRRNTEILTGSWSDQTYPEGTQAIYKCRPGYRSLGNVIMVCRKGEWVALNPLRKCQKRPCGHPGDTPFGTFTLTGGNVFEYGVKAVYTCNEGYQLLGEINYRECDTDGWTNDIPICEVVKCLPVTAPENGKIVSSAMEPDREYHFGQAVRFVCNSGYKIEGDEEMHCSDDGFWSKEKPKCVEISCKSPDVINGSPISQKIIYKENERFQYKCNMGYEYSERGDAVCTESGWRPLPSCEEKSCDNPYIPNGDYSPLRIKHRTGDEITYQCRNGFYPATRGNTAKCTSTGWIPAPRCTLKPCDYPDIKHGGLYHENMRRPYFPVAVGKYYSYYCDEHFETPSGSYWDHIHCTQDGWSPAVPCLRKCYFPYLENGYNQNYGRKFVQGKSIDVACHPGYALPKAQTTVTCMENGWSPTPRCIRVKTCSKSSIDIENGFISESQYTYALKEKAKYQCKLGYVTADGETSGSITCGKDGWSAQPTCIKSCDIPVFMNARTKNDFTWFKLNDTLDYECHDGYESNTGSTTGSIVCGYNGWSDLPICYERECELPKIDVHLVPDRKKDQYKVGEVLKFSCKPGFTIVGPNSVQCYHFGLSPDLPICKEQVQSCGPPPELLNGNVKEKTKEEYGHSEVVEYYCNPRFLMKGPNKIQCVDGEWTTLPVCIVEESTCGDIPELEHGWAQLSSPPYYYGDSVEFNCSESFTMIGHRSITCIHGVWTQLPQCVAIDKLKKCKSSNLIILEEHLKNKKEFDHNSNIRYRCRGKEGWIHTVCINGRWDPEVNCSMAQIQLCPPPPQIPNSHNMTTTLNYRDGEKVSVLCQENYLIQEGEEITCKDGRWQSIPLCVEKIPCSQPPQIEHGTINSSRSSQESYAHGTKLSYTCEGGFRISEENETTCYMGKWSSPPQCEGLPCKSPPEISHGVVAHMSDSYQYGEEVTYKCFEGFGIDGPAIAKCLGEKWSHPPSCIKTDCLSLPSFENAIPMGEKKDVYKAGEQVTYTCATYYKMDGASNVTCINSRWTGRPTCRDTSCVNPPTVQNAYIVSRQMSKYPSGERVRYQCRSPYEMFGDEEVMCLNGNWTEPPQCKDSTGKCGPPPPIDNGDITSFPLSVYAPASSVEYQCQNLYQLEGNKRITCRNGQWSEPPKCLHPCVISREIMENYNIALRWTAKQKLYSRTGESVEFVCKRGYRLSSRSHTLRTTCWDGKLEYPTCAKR
CFHR3, sequence (Q02985 19-330): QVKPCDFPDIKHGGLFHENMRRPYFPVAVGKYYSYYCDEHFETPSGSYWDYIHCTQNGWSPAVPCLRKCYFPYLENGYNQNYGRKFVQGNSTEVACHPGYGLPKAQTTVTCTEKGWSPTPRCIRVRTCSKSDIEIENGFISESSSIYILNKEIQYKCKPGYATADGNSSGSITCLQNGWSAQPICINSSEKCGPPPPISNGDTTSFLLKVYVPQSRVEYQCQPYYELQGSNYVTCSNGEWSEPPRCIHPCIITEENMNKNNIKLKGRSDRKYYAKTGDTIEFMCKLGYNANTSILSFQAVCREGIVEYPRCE
CFHR1, sequence (Q03591 19-330): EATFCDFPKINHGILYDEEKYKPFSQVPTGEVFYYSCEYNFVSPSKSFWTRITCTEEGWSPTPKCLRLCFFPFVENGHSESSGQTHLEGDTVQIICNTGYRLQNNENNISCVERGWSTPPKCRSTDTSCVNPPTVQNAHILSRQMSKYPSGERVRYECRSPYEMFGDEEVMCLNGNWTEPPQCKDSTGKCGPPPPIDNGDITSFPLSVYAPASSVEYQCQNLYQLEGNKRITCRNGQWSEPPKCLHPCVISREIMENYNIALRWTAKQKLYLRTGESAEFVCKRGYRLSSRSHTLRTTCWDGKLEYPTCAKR
complement factor H-related protein 1 (CFHR1), recombinant wild-type, sequence (Q03591 19-330): as above

Regarding CFHR1 (from UniProt Q03591), the Kd in the assay with C3d C3d (Homo sapiens) was 1200 nM.

For “CFHR1 Mut1 (N216A/D218A) (from UniProt Q03591 19-330) (natural protein)”, in assay [1], the alternative pathway hemolysis of guinea pig erythrocytes in 10% NHS with 140 nM CFH plus 2 μM CFHR1 Mut1 (competition with CFH for C3b; ~8% with CFH alone) was found to be 8%. Regarding “CFHR1 Mut2 (Q238A/Y241A) (from UniProt Q03591 19-330) (natural protein)”, in assay [1], the alternative pathway hemolysis of guinea pig erythrocytes in 10% NHS with 140 nM CFH plus 2 μM CFHR1 Mut2 (competition with CFH for C3b; ~8% with CFH alone) is 6%.

As to “CFHR1 Mut3 (Y52S/S54Y/Y57E) (from UniProt Q03591 19-330) (natural protein)”, the alternative pathway hemolysis of guinea pig erythrocytes in 10% NHS with 140 nM CFH plus 2 μM CFHR1 Mut3 (competition with CFH for C3b; ~8% with CFH alone) in assay [2] worked out at 12%. For the substance CFHR3 (from UniProt Q02985), the dissociation constant (Kd) in the assay with C3d C3d (Homo sapiens) is 1100 nM. With “complement factor H (CFH), recombinant (from UniProt P08603-1 19-1231) (natural protein)”, in assay [1], the alternative pathway hemolysis of guinea pig erythrocytes in 10% NHS with 140 nM CFH added (~58% without added CFH) stood at 8%. With “complement factor H-related protein 1 (CFHR1), recombinant wild-type (from UniProt Q03591 19-330) (natural protein)”, the alternative pathway hemolysis of guinea pig erythrocytes in 10% NHS with 140 nM CFH plus 2 μM wild-type CFHR1 (competition with CFH for C3b; ~8% with CFH alone) in assay [1] was found to be 23%.
